In US20260226179A1 (MAB DESIGNS, published 2026):
Values joined by “and” are separate entries in the source; they are usually repeats but may differ in a detail not shown here. Identical values can stand only once.

T1: human membrane-bound IL-6R subunit alpha (human, UniProt P08887 20-468)
T1 sequence: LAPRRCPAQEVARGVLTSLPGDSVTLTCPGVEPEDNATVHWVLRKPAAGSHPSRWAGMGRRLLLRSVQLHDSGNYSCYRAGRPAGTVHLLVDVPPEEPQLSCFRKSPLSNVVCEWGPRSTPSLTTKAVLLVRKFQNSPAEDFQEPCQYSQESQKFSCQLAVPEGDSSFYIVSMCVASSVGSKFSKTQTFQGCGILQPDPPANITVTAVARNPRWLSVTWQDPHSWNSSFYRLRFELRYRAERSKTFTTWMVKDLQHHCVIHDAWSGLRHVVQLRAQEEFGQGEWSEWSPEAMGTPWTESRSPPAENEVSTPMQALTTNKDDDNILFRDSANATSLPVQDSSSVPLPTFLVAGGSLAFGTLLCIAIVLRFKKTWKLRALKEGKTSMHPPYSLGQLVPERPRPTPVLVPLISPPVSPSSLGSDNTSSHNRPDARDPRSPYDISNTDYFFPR

T2: human soluble IL-6R (human, UniProt P08887 20-357)
T2 sequence: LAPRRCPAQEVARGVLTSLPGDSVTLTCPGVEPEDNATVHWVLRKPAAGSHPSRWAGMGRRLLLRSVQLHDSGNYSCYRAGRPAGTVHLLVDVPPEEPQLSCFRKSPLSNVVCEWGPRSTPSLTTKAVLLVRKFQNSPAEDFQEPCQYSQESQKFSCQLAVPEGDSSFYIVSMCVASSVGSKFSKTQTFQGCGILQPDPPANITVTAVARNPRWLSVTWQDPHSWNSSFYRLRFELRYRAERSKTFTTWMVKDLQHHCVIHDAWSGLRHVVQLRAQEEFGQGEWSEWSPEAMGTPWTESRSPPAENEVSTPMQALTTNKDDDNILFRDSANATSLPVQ


Assays:
[1] = biological target: T1, human membrane-bound IL-6R subunit alpha; assay: cell-based or functional assay
human soluble IL-6R = biological target: T2, human soluble IL-6R; assay: cell-based or functional assay

IC50 for the inhibition of IL-6 classical signalling-induced proliferation (Ba/F3_gp130_IL-6R cells + IL-6) [1]	IC50 for the inhibition of IL-6 mixed signalling-induced proliferation (Ba/F3_gp130_IL-6R cells + IL-6 + sIL-6R) [1]	Proliferation in % (Ba/F3_gp130 cells, IL-6 + sIL-6R = 100%; IL-6 trans signalling) at IgG 10 ng/ml (human soluble IL-6R)	Proliferation in % (Ba/F3_gp130 cells, IL-6 + sIL-6R = 100%; IL-6 trans signalling) at IgG 100 ng/ml (human soluble IL-6R)	Proliferation in % (Ba/F3_gp130 cells, IL-6 + sIL-6R = 100%; IL-6 trans signalling) at IgG 300 ng/ml (human soluble IL-6R)	Proliferation in % (Ba/F3_gp130 cells, IL-6 + sIL-6R = 100%; IL-6 trans signalling) at IgG 500 ng/ml (human soluble IL-6R)	Proliferation in % (Ba/F3_gp130 cells, IL-6 + sIL-6R = 100%; IL-6 trans signalling) at IgG 700 ng/ml (human soluble IL-6R)	Proliferation in % (Ba/F3_gp130 cells, IL-6 + sIL-6R = 100%; IL-6 trans signalling) at IgG 1,000 ng/ml (human soluble IL-6R)	Proliferation in % (Ba/F3_gp130 cells, IL-6 + sIL-6R = 100%; IL-6 trans signalling) at IgG 10,000 ng/ml (human soluble IL-6R)	Binder
> 10 µg/mL	> 10 µg/ml and > 53 nM	99.2%	92.2%	88.5%	78.3%	72.3%	57.7%	10.8%	anti-IL-6R IgG antibody C19 (antibody, V domains shown) VH: EVKLMESGGGLVQPGGSLKLSCAASGFTFSNYGMSWVRQTPDKRLELVAIMNSKGGSTYYPDSVMGRFTISRDNAKNTLYLQMSSLKSEDTAMYYCARDGYYTMDYWGQGTSVTVSS VL: DIVLTQSPASLAVSLGQRATISCRASKSVDSFGNSFMHWYQQKPGQSPRLLIFLASNLESGVPARFSGSGSRTDFTLTIDPVEADDAATYYCQQNNEDPYTFGGGTKLEIK
> 10 µg/mL	> 10 µg/ml and > 53 nM	101%	98.9%	89.1%	75.3%	66.9%	48.1%	11.6%	anti-IL-6R IgG antibody C12 (antibody, V domains shown) VH: EVKLMESGGGLVQPGGSLKLSCAASGFTFSNYGMSWVRQTPDKRLEWVANINSNGGSTYYPDSVKGRFTISRDNAQNTLYLQMSSLKSEDTAMYYCTRDGNFVSDYWGQGTTLTVSS VL: DIVLTQSPASLAVSPGQRATISCRASESVDSYGNSFMNWYQQKPGQPPKLLIYLASNLESGVPARFSGSGSRTDFTLTIDPVEADDAATYYCQQNNEDPYTFGGGTKLEIK
> 10 µg/mL	> 10 µg/ml and > 53 nM	98.2%	93.1%	88.3%	82.6%	82.5%	72.9%	25.8%	anti-IL-6R IgG antibody C09 (antibody, V domains shown) VH: EVQLVESGGDLVQPGGSLKLSCAASGFTFSNYGMSWVRQTPDKRLELVAAINSNGGSTYYPDSVKGRFTISRDNAKNTLYLQMSSLKSEDTAMYYCARDGNYVSDYWGQGTTLTVSS VL: DIVLTQSPASLAVSLGQRATISCRASESVDSYGNSFMHWYQQKPGQPPKLLIYLASNLESGVPARFSGSGSRTDFTLTIDPVEADDAATYYCQQNNEDPWTFGGGTKLEIK
